Broadly, the Kd is the constant that tells how readily two partners part at equilibrium. A higher Kd goes with a looser complex. For orientation: stoichiometry N means a count of units in the complex or per binding partner.

The results in this text go back to paper PMC2927781.

Experiment in all cases: ITC; H3K4me2 peptide injected (19 x 2 ul) into the protein; 25 °C; 25 mM Tris pH 8.0, 100 mM NaCl; iTC 200; one-site model
On the technique in general: Isothermal titration calorimetry measures the heat released or taken up as one component is titrated into another.

The target of experiment [1] is PHD_(Pygo2)–HD1B9L complex (6×His-tagged, PHD linked to HD1; ITC construct) (human) (UniProt Q9BRQ0).
The target of experiment [2] is PHD_(Pygo2)–HD1B9L complex with Pygo2 I344A (human) (UniProt Q9BRQ0).
Experiment [3] concerns the target free PHD finger of human Pygo2 (human).
Experiment [4] concerns the target PHD_(Pygo2)–HD1_(BCL9) complex (human) (UniProt Q9BRQ0).
The target of experiment [5] is PHD_(Pygo2)–HD1B9L complex with Pygo2 W377F (human) (UniProt Q9BRQ0).
For experiment [6], the target named is PHD_(Pygo1)–HD1_(BCL9) complex (6×His-tagged, PHD linked to HD1) (human) (UniProt Q9Y3Y4).
The target in experiment [7] is PHD_(Pygo1)–HD1B9L complex (human) (UniProt Q9Y3Y4).
In experiment [8] the target is free PHD finger of human Pygo1 (human).

With “15-mer H3K4me2 histone tail peptide (histone H3 tail dimethylated at lysine 4)”, the Kd turned out to be 1.83 µM in experiment [1]; 19.5 µM in experiment [2]; 4.95 µM in experiment [3]; 11.5 µM in experiment [5]; 5.93 µM in experiment [8]. The stoichiometry N in experiment [1], in experiment [3], in experiment [4], in experiment [6], in experiment [7] and in experiment [8] was 1 each time. The same substance registered a fold increase in affinity over free PHD (Pygo1) in experiment [6] of 2 fold.
